How the values were obtained:
[1] = target: T1, B7-H3 on canine osteosarcoma OSCA78 cells (canine); assay: flow cytometry on OSCA78 cells, 16 nM, experiment 2
T1 construct: whole, on cells

[2] = target: T1, B7-H3 on canine osteosarcoma OSCA78 …; assay: flow cytometry on OSCA78 cells, 400 nM, experiment 2
[3] = target: T1, B7-H3 on canine osteosarcoma OSCA78 …; assay: flow cytometry on OSCA78 cells, 400 nM, experiment 1
[4] = target: T1, B7-H3 on canine osteosarcoma OSCA78 …; assay: flow cytometry on OSCA78 cells, 2000 nM, experiment 1
[5] = target: T1, B7-H3 on canine osteosarcoma OSCA78 …; assay: flow cytometry on OSCA78 cells, 80 nM, experiment 1
[6] = target: T1, B7-H3 on canine osteosarcoma OSCA78 …; assay: flow cytometry on OSCA78 cells, 80 nM, experiment 2
[7] = target: T2, canine CD16A on dog peripheral blood leukocytes / PBMC (canine, UniProt E2RP87 1-249); assay: flow cytometry, FITC protein at 400 nM, dog PBMC treated with IL-15 for 6 days
T2 construct: Native protein on primary dog cells of various breeds
T2 sequence: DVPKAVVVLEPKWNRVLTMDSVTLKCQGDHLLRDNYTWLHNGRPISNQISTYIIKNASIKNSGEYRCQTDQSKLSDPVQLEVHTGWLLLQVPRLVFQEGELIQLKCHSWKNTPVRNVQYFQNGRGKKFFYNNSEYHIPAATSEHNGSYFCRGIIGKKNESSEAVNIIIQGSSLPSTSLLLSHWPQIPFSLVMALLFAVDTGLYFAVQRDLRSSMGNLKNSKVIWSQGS
Protocol: (§1) To test the binding of the anti-CD16 domain, binding was evaluated on canine peripheral blood mononuclear cells (PBMC) that contained canine NK cells, T cells, B cells, and monocytes (Table 2). A single batch of 1615B7H3 TriKE (SEQ ID NO:56) was directly labeled with FITC fluorochrome and tested. The binding of the anti-CD16 fragment alone (anti-CD16-FITC) was tested as a positive control. Binding of an anti-B7H3 fragment alone (antiB7H3-FITC) was tested as a negative control.

[8] = target: T2, canine CD16A on dog peripheral blood …; assay: flow cytometry, FITC protein at 80 nM, PBMC of dog Maverick
Protocol: as §1

[9] = target: T2, canine CD16A on dog peripheral blood …; assay: flow cytometry, FITC protein at 80 nM, PBMC of dog Never
Protocol: as §1

[10] = target: T2, canine CD16A on dog peripheral blood …; assay: flow cytometry, FITC protein at 2000 nM, PBMC of dog Maverick
Protocol: as §1

[11] = target: T2, canine CD16A on dog peripheral blood …; assay: flow cytometry, FITC protein at 2000 nM, PBMC of dog Never
Protocol: as §1

[12] = target: T2, canine CD16A on dog peripheral blood …; assay: flow cytometry, FITC protein at 400 nM, PBMC of dog Never
Protocol: as §1

[13] = target: T2, canine CD16A on dog peripheral blood …; assay: flow cytometry, FITC protein at 80 nM, dog PBMC treated with IL-15 for 6 days
Protocol: as §1

[14] = target: T2, canine CD16A on dog peripheral blood …; assay: flow cytometry, FITC protein at 2000 nM, dog PBMC treated with IL-15 for 6 days
Protocol: as §1

[15] = target: T2, canine CD16A on dog peripheral blood …; assay: flow cytometry, FITC protein at 400 nM, PBMC of dog Maverick
Protocol: as §1

[16] = target: T2, canine CD16A on dog peripheral blood …; assay: flow cytometry on dog peripheral blood leukocytes (FIG. 4A)
Description: Flow cytometry was used to examine the expression patterns of CD16A and CD64 by dog peripheral blood leukocytes. The general leukocyte populations of polymorphonuclear cells (PMNs), monocytes, and lymphocytes were identified based on their characteristic forward and side light-scattering and by their expression of well characterized markers, including CD4 (neutrophils and lymphocyte), CD14 (monocytes), and CD5 (T cells) (FIG. 4A). The anti-canine CD16A clone 4A5 stained a subset of monocytes and lymphocytes, and for some dogs it marginally stained PMNs and/or a small subset of cells in this population (FIG. 4A). This staining pattern was consistent for all the anti-canine CD16 mAbs generated, which had distinct complementarity-determining region nucleotide sequences from 4A5. […]
For cell staining, nonspecific antibody binding sites were blocked for 30 min using 25% canine serum and 25% FBS in PBS buffer (without Ca⁺² and Mg⁺²) (Lonza Group AG, Basel, Switzerland) prior to their staining with antibodies. All cell staining was analyzed on a FACSCelesta instruments (BD Biosciences, Franklin Lakes, N.J.), as previously described (Snyder et al., Vet Immunol Immunopathol 231:110162, 2021). Briefly, for controls, fluorescence minus one was used as well as appropriate isotype-matched antibodies. […]

[17] = target: T3, recombinant intact canine CD64 with an N-terminus HA-tag, expressed on NK-92 cells (canine); assay: flow cytometry on NK-92 cCD16A and NK-92 cCD64 cells (FIG. 3A)
T3 construct: also called NK-92 canine CD64 cells; NK-92 cCD64; not shown: N-terminal HA tag from the pDisplay cassette
T3 chain: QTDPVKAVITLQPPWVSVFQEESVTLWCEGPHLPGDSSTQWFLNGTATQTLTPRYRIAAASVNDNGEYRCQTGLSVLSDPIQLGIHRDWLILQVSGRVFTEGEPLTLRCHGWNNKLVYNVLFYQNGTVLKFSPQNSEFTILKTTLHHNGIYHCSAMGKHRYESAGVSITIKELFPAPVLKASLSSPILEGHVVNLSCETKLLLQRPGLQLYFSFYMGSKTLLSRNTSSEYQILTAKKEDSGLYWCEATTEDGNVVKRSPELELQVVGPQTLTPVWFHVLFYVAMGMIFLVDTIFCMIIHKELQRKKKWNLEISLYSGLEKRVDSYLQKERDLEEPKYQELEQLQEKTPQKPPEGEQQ

B1: anti-B7H3 antibody fragment alone (VHH)
VHH: QVQLVESGGGLVQPGGSLRLSCAASGFTFSSYWMYWVRQTPGKGLEWVSTINRDGSATWYADSVKGRFTISRDNAKNTGYLQMNSLKPDDTAVYYCVSDPDNYSSDEMVPYWGQGTQVTVSS
modifications: FITC-labelled in the PBMC assay (sites not given)
notes: The kind VHH is inferred from the single variable domain and the label 1615CAMB7H3; also called antiB7H3-FITC; anti-B7H3 fragment
binding (flow cytometry read-out, unit not given) [1]: 2.8 | binding (flow cytometry read-out, unit not given) [2]: 93.7 | binding (flow cytometry read-out, unit not given) [3]: 98.8 | binding (flow cytometry read-out, unit not given) [4]: 99.8 | binding (flow cytometry read-out, unit not given) [5]: 64 | binding (flow cytometry read-out, unit not given) [6]: 42.1

B2: anti-canine CD16 antibody fragment alone (other)
VL: MEQILLTQSPAIMSASPGEKVTMTCSASSSVGYMHWYQQKPGSSPKPWIYDTSDLASGFPARFSGSRSGTSYSLIISSMEAEDAATYYCHQRSFYPYTFGGGTKLEIK
VH: EVQLQQSGAELVRSGASVKLSCTASGFNIKDYYMHWVKQRPEQGLEWIGWLDPENGDTVYAPKFQGRATMTADTSSNTAYLHLSSLTSEDTAVYYCNALVYSLLGQDYWGQGTTLTVSS
modifications: FITC-labelled in the PBMC assay (sites not given)
notes: also called anti-CD16; anti-CD16-FITC
binding (flow cytometry read-out, unit not given) [7]: 15.3 | binding (flow cytometry read-out, unit not given) [8]: 10.1 | binding (flow cytometry read-out, unit not given) [9]: 3.7 | binding (flow cytometry read-out, unit not given) [10]: 43.6 | binding (flow cytometry read-out, unit not given) [11]: 23.8 | binding (flow cytometry read-out, unit not given) [12]: 8.8 | binding (flow cytometry read-out, unit not given) [13]: 6.2 | binding (flow cytometry read-out, unit not given) [14]: 35.8 | binding (flow cytometry read-out, unit not given) [15]: 26.5

B3: anti-canine CD16A mAb (clone 4A5) (antibody, IgG1)
VH: EVQLQQSGAELVRSGASVKLSCTASGFNIKDYYMHWVKQRPEQGLEWIGWLDPENGDTVYAPKFQGRATMTADTSSNTAYLHLSSLTSEDTAVYYCNALVYSLLGQDYWGQGTTLTVSSAKTTPPSVYPLAPGSAAQTNSMVTLGCLVKGYFPEPVTVTWNSGSLSSGVHTFPAVLQSDLYTLSSSVTVPSS
VL: QILLTQSPAIMSASPGEKVTMTCSASSSVGYMHWYQQKPGSSPKPWIYDTSDLASGFPARFSGSRSGTSYSLIISSMEAEDAATYYCHQRSFYPYTFGGGTKLEIKRADAAPTVSIFPPSSEQLTSGGASVVCFLNNFYPKDINVKWKIDGSERQNGVLNSWTDQDSKDSTYSMSSTLTLTK
notes: also called anti-CD16A mAb clone 4A5; anti-canine CD16 (clone 4A5)
binding result [16]: binds | binding result [17]: no binding

From patent publication US20230227561A1 (REGENTS OF THE UNIVERSITY OF MINNESOTA, published 2023)
